The chains are these.
T1: ATP7B metal binding domains 3-4, wild type (WT-MBD3-4) (human, UniProt P35670 238-439)
T1 construct: The printed PCR primers encode a start at RPLSSAN and an end at TNPLGNH followed by a stop codon; Residues of the vector may remain after intein cleavage; also called ATP7B MBD3-4; ATP7B-MBD34; source: E. coli Origami 2, purified (chitin beads, intein self-cleavage with DTT)
T1 sequence: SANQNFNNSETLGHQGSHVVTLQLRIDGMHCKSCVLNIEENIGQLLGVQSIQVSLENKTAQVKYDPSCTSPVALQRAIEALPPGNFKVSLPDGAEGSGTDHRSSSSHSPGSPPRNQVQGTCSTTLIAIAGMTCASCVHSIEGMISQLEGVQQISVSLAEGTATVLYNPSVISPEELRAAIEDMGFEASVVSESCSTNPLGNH

B1: Atox1 metallochaperone, wild type (WT-Atox1) (natural protein, human)
chain: MPKHEFSVDMTCGGCAEAVSRVLNKLGGVKYDIDLPNKKVCIESEHSMDTLLATLKKTGKTVSYLGLE
notes: Human Atox1 copper metallochaperone
B2: MBD3-4_C268S_C271S_C370S_C373S mutant of ATP7B (SER-MBD3-4) (domain or fragment, human)
chain: T1 sequence with C31S, C34S, C133S, C136S
notes: The methods describe only the wild-type construct; also called MBD3-4(Ser); source: expressed and purified as WT-MBD3-4 (E. coli Origami 2, chitin beads, intein self-cleavage)
B3: CueR metalloregulator of E. coli, wild type (WT-CueR) (natural protein, UniProt P0A9G4 1-135, looked up)
chain: MNISDVAKITGLTSKAIRFYEEKGLVTPPMRSENGYRTYTQQHLNELTLLRQARQVGFNLEESGELVNLFNDPQRHSADVKRRTLEKVAEIERHIEELQSMRDQLLALANACPGDDSADCPIIENLSGCCHHRAG
notes: No cleavage is described; source: E. coli BL21, purified (Ni-NTA agarose)
B4: CueR_C120S (natural protein, E. coli, UniProt P0A9G4 1-135, looked up)
chain: B3 chain with C120S
notes: E. coli CueR, same construct as m4, with C120S; source: E. coli BL21, purified (Ni-NTA agarose)
B5: CueR_C112S (natural protein, E. coli, UniProt P0A9G4 1-135, looked up)
chain: B3 chain with C112S
notes: E. coli CueR, same construct as m4, with C112S; source: E. coli BL21, purified (Ni-NTA agarose)
B6: CueR_C112S_C120S (natural protein, E. coli, UniProt P0A9G4 1-135, looked up)
chain: B3 chain with C112S, C120S
notes: E. coli CueR, same construct as m4, with C112S and C120S; source: E. coli BL21, purified (Ni-NTA agarose)

In data set [1] the target is B2. As to the kind of experiment: cross-linking; 0.1% glutaraldehyde, RT, 30 min or overnight, phosphate buffer (25 mM Na2HPO4, 150 mM NaCl, pH 8), read by SDS-PAGE; MBD3-4 at 50 uM or increasing concentrations, Atox1 at 50 uM; with or without Cu(I) at different ratios. The settings on record: both partners purified.
The target of data set [2] is T1, ATP7B metal binding domains 3-4, wild …. The description is as above. To be noted: both partners purified.
Data set [3] deals with the molecule itself. The description is as above.
Data set [4] deals with the molecule itself. In words: cross-linking; 0.6% glutaraldehyde, RT, 30 min, phosphate buffer (25 mM Na2HPO4, 150 mM NaCl, pH 8), CueR at 20 uM, with or without Cu(I) at a 1:3 ratio, read by SDS-PAGE.

Where a chain is given by its changes, count along the chain named. Names and notes keep the numbering of the source.

Take B1: the binding result in data set [1] and in data set [2] was “binds” in each case. Regarding B2, in data set [3], the binding result is recorded as “binds”. For the molecule B3, in data set [4], the “stoichiometry N” value was 2. Regarding B4, the binding result in data set [4] was “binds”.

Take B5: in data set [4], the binding result is on record as “binds”. The same measure, in the same setting: under B6 stands “binds”.
